Where a chain is given by its changes, count along the chain named. In names and notes the source's numbering stands.
How the values were obtained:
[1] = target: T1, human 5T4 with P326 mutated to alanine, on HEK293 cells (human, UniProt Q13641 32-420); experiment: alanine scanning, flow cytometry on HEK293 cells, normalised to bsIgG1-5T4-A1-F405Lxb12-FEAR-FITC
T1 sequence: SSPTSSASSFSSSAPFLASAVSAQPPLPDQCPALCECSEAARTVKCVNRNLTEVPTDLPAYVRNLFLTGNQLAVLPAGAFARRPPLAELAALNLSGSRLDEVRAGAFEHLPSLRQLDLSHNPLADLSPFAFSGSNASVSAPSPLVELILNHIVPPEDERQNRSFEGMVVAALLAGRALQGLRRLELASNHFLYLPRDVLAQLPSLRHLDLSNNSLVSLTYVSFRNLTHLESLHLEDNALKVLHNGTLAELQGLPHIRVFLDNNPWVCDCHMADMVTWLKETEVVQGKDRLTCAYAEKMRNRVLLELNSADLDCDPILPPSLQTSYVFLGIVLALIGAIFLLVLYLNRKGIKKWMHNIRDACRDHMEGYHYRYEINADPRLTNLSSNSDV

[2] = target: T2, human 5T4 with L309 mutated to alanine, on HEK293 cells (human, UniProt Q13641 32-420); experiment: as above
T2 sequence: T1 sequence with L278A, A295P

[3] = target: T3, human 5T4 with L281 mutated to alanine, on HEK293 cells (human, UniProt Q13641 32-420); experiment: as above
T3 sequence: T1 sequence with L250A, A295P

[4] = target: T4, full length cynomolgus monkey 5T4 on transfected HEK-293 cells (cynomolgus monkey, UniProt Q4R8Y9 35-420); experiment: flow cytometry, HEK-293 cells transfected with cynomolgus monkey 5T4, PE secondary [II)G]
T4 construct: Uniprot Q4R8Y9; residues 1-34 are the signal peptide; also called cynomolgus 5T4
T4 sequence: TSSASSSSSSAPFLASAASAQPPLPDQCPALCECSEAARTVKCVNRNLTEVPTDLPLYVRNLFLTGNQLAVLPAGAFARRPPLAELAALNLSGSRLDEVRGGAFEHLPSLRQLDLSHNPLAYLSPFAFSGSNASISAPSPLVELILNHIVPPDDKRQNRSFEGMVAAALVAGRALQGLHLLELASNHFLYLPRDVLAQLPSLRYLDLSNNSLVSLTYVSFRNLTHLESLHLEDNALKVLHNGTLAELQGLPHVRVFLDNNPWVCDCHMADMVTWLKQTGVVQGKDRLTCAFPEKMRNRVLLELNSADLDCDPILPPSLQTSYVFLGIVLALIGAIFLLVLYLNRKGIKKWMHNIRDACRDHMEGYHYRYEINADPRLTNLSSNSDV

[5] = target: T5, human 5T4ECDHis (mature protein of SEQ ID NO: 99) (human, UniProt Q13641 32-355); experiment: BLI, antibody on anti-human IgG Fc Capture biosensor, antigen in solution; 50 s dissociation window
T5 construct: ECD of human 5T4 (aa 1-355 of Uniprot Q13641) with C-terminal His tag; residues 1-31 are the signal peptide; also called ECD of human 5T4 with a C-terminal His tag
T5 sequence: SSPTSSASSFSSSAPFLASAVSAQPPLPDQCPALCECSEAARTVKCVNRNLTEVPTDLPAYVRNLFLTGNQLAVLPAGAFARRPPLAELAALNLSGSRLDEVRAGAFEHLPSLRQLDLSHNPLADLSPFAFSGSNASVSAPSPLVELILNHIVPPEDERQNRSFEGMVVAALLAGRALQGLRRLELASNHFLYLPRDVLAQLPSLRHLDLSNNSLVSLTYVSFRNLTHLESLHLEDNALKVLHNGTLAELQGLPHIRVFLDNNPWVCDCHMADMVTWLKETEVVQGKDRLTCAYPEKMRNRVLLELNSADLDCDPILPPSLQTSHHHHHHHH

[6] = target: T5, human 5T4ECDHis (mature protein of SEQ …); experiment: BLI cross-block; competitor (immobilised): IgG1-5T4-A1-F405L
[7] = target: T5, human 5T4ECDHis (mature protein of SEQ …); experiment: BLI cross-block; competitor (immobilised): IgG1-5T4-059-FEAR
[8] = target: T5, human 5T4ECDHis (mature protein of SEQ …); experiment: BLI cross-block; competitor (immobilised): IgG1-5T4-106-FEAR
[9] = target: T5, human 5T4ECDHis (mature protein of SEQ …); experiment: BLI cross-block; competitor (immobilised): IgG1-5T4-207-FEAR
[10] = target: T5, human 5T4ECDHis (mature protein of SEQ …); experiment: BLI cross-block; competitor (immobilised): IgG1-5T4-127-FEAR
[11] = target: T6, full length human 5T4 (SEQ ID NO: 1) on cells (human, UniProt Q13641 32-420); experiment: flow cytometry, HEK-293 cells transfected with human 5T4, PE secondary [II)G]
T6 construct: Uniprot Q13641; residues 1-31 are the signal peptide; Used both for transfected HEK-293 cells and for 5T4-expressing human tumor cell lines
T6 sequence: T1 sequence with A295P

[12] = target: T5, human 5T4ECDHis (mature protein of SEQ …); experiment: BLI cross-block; competitor (immobilised): IgG1-5T4-085-FEAR
[13] = target: T7, recombinant cynomolgus monkey 5T4 protein (Cusabio; cat. no. CSB-MP024093MOV) (cynomolgus monkey, UniProt Q4R8Y9 35-355); experiment: BLI, antibody on anti-human IgG Fc Capture biosensor, antigen in solution; 50 s dissociation window
T7 construct: extracellular domain; Bought protein; also called cynomolgus 5T4; cynomolgus monkey 5T4 extracellular domain
T7 sequence (looked up): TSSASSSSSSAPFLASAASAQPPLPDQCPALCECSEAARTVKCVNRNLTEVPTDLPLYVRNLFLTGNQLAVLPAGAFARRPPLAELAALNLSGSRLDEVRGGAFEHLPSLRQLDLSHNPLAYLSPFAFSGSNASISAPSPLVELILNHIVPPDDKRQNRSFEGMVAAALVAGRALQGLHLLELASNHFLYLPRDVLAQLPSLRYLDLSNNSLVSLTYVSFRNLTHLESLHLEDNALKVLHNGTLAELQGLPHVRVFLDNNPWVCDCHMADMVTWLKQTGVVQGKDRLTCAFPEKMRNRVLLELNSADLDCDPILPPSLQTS

[14] = target: T5, human 5T4ECDHis (mature protein of SEQ …); experiment: BLI cross-block; competitor (immobilised): IgG1-5T4-226-FEAR
[15] = target: T5, human 5T4ECDHis (mature protein of SEQ …); experiment: BLI cross-block; competitor (immobilised): IgG1-5T4-076-FEAR
[16] = target: T6, full length human 5T4 (SEQ ID NO: 1) on …; experiment: flow cytometry, MDA-MB-231 cells, PE secondary [III)F]
[17] = target: T5, human 5T4ECDHis (mature protein of SEQ …); experiment: BLI cross-block; competitor (immobilised): IgG1-5T4-H8-FEAR
[18] = target: T5, human 5T4ECDHis (mature protein of SEQ …); experiment: BLI cross-block; competitor (immobilised): IgG1-5T4-A3-F405L

B1: bsIgG1-b12-FEALx5T4-226-FEAR-FITC (bispecific antibody, V domains shown)
VH 1: QVQLVQSGAEVKKPGASVKVSCQASGYRFSNFVIHWVRQAPGQRFEWMGWINPYNGNKEFSAKFQDRVTFTADTSANTAYMELRSLRSADTAVYYCARVGPYSWDDSPQDNYYMDVWGKGTTVIVSS
VL 1: EIVLTQSPGTLSLSPGERATFSCRSSHSIRSRRVAWYQHKPGQAPRLVIHGVSNRASGISDRFSGSGSGTDFTLTITRVEPEDFALYYCQVYGASSYTFGQGTKLERK
VH 2: QVQLQQWGAGLLKPSETLSLTCAVYGGSFSGYYWSWIRQPPGKGLEWIGEIDHSGSTNYNPSLKSRVTISVDTSKNQFSLKLSSVTAADTAVYYCAAWFGELWDYYYGMDVWGQGTTVTVSS
VL 2: EIVLTQSPATLSLSPGERATLSCRASQSVSSFLAWYQQKPGQAPRLLIYDASNRATGIPARFSGSGSGTDFTLTISSLEPEDFAVYYCQQRSNWPLTFGQGTRLEIK
notes: b12 arm IgG1 FEAL, 5T4 arm IgG1 FEAR
For B1, the “Z-score (fold change) of binding” value [1] was -1.67, the “Z-score (fold change) of binding” value [2] was -1.63 and the “Z-score (fold change) of binding” value [3] was -1.65.

B2: IgG1-5T4-127-FEAR (antibody, V domains shown)
VH: EVQLLESRGGLVQPGGSLRLSCAASGFTFSSYAMSWVRQAPGKGLEWVSTISGSGGSTYYADSVKGRFTISRDNSKKTLYLQMNSLRAEDTAVYYCAKDWGSGSYPAEYFQHWGQGTLVTVSS
VL: EIVLTQSPATLSLSPGERATLSCRASQSVSSYLAWYQQKPGQAPRLLIYDASNRATGIPARFSGSGSGTDFTLTISSLEPEDFAVYYCQQRSNWLMYTFGQGTKLEIK
notes: Monospecific, bivalent human IgG1 kappa with L234F, L235E, D265A, K409R (FEAR)
B2 was tested, and the “EC50 (read off the curve)” value [4] was ~0.02 µg/mL, the Kd [5] was 27 nM and the koff [5] was 0.016 s⁻¹. The kon [5] was 580000 M⁻¹ s⁻¹, the corrected association response [6] was 0.87 nm and the corrected association response [7] was -0.1 nm. It also gave a corrected association response [8] of -0.02 nm, a corrected association response [9] of 1.29 nm and a corrected association response [10] of -0.01 nm. For the same binder, the “EC50 (read off the curve)” value [11] was ~0.03 µg/mL, the corrected association response [12] was 0 nm and the Kd [13] was 41 nM. For the same binder, the koff [13] was 0.015 s⁻¹, the kon [13] was 370000 M⁻¹ s⁻¹ and the corrected association response [14] was 1.51 nm. For the same binder, the corrected association response [15] was -0.02 nm, the “EC50 (read off the curve)” value [16] was ~0.03 µg/mL and the corrected association response [17] was -0.01 nm. It also gave a corrected association response [18] of 0.01 nm.
